{"source": "paper PMC4869865", "about": "(Structure (London, England : 1993), 2010)", "binders": {"B1": {"name": "γ subunit (DnaX) of the E. coli clamp loader (natural protein, UniProt P06710-2 1-431, looked up)", "chain": "MSYQVLARKWRPQTFADVVGQEHVLTALANGLSLGRIHHAYLFSGTRGVGKTSIARLLAKGLNCETGITATPCGVCDNCREIEQGRFVDLIEIDAASRTKVEDTRDLLDNVQYAPARGRFKVYLIDEVHMLSRHSFNALLKTLEEPPEHVKFLLATTDPQKLPVTILSRCLQFHLKALDVEQIRHQLEHILNEEHIAHEPRALQLLARAAEGSLRDALSLTDQAIASGDGQVSTQAVSAMLGTLDDDQALSLVEAMVEANGERVMALINEAAARGIEWEALLVEMLGLLHRIAMVQLSPAALGNDMAAIELRMRELARTIPPTDIQLYYQTLLIGRKELPYAPDRRMGVEMTLLRALAFHPRMPLPEPEVPRQSFAPVAPTAVMTPTQVPPQPQSAPQQAPTVPLPETTSQVLAARQQLQRVQGATKAKKE"}}, "assay_in_all_cases": "native MS", "key": {"native MS [1]": {"target": "the molecule itself"}, "native MS [2]": {"target": "the molecule itself", "remark": "listed apart in the source"}, "δδ′ subcomplex": {"target": "δδ′ subcomplex (E. coli, UniProt P28630 1-343; P28631 1-334)"}}, "note": "Like-named read-outs stand apart in the source and are kept apart here.", "data": [{"binder": "B1", "values": [{"measurement": "stoichiometry N", "setting": "native MS [1]", "value": 4}, {"measurement": "stoichiometry N", "setting": "native MS [2]", "value": 3}, {"measurement": "binding result", "setting": "δδ′ subcomplex", "value": "binds"}]}]}
